Assay results taken from the supplement of paper PMC10724198.
± gives the standard deviation of the averaged measurements.

What was measured:
[1] = test system: Saccharomyces cerevisiae; test: protein stability index of tFT-peptide fusion (C-terminal peptide) (PSI (0-1 scale)); higher = more stable (slower turnover); conditions: genetic background: wild type; temperature: 30 C
[2] = test system: Saccharomyces cerevisiae; test: as above
Procedure: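 MPS profiling in S. cerevisiae of the tFT-X12 degron library: putative degron peptides plus stable controls, 12 aa, fused to the C-terminus of a sfGFP-mCherry timer. Cells are FACS-sorted into 8 mCherry/sfGFP bins and deep-sequenced. PSI runs from 0 (unstable) to 1 (stable). Backgrounds are wild type, das1Δ and doa10Δ at 30 °C, and wild type, das1Δ, cdc34-1 and cdc53-1 at 37 °C; 2-3 technical replicates each.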

[3] = genetic background: cdc34-1, temperature: 37 C
[4] = genetic background: cdc53-1, temperature: 37 C
[5] = genetic background: das1 deletion, temperature: 30 C
[6] = genetic background: das1 deletion, temperature: 37 C
[7] = genetic background: doa10 deletion, temperature: 30 C
[8] = genetic background: wild type, temperature: 30 C
[9] = genetic background: wild type, temperature: 37 C
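Also: PSI is a weighted mean of sequencing reads over stability bins, variants kept only with over 10 reads, mCherry proximal and sfGFP distal, peptide attached via GGGS linker.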

Sequence	protein stability index [1]	protein stability index [2, 3]	protein stability index [2, 4]	protein stability index [2, 5]	protein stability index [2, 6]	protein stability index [2, 7]	protein stability index [2, 8]	protein stability index [2, 9]
SRSFFRRLLFCF	0.396 ± 0.016	0.642 ± 0.033	0.7705 ± 0.0056	0.679 ± 0.022	0.8141 ± 0.0018	0.3352 ± 0.0008	0.352 ± 0.0083	0.4821 ± 0.0037
SSAPPTLHTRPS	0.539 ± 0.059	0.642 ± 0.027	0.7092 ± 0.0049	0.662 ± 0.023	0.686 ± 0.012	0.664 ± 0.0071	0.6631 ± 0.0044	0.681 ± 0.0066
SSRRVVLPLLVA	0.202 ± 0.027	0.336 ± 0.057	0.402 ± 0.0094	0.309 ± 0.032	0.481 ± 0.0058	0.123 ± 0.011	0.136 ± 0.033	0.131 ± 0.027
SVHKYGFIKEIN	0.531 ± 0.047	0.732 ± 0.026	0.70852 ± 0.00021	0.668 ± 0.061	0.761 ± 0.023	0.473 ± 0.035	0.474 ± 0.046	0.667 ± 0.016
SVVLCRFVLRIF	0.128 ± 0.018	0.0423 ± 0.011	0.109 ± 0.055	0.136 ± 0.015	0.181 ± 0.039	0.0747 ± 0.0075	0.0735 ± 0.017	0.136 ± 0.038
SVVWIRFVGVRV	0.418 ± 0.0043	0.472 ± 0.026	0.507 ± 0.022	0.322 ± 0.024	0.5291 ± 0.0048	0.285 ± 0.0075	0.328 ± 0.016	0.499 ± 0.0089
SWFNLLSILPRD	0.7305 ± 0.0018	0.699 ± 0.022	0.7053 ± 0.0039	0.7 ± 0.088	0.784 ± 0.022	0.714 ± 0.029	0.683 ± 0.019	0.736 ± 0.045
SWIKRYEITCIL	0.478 ± 0.015	0.543 ± 0.033	0.568 ± 0.026	0.424 ± 0.044	0.5973 ± 0.0036	0.363 ± 0.0093	0.39 ± 0.0099	0.492 ± 0.027
SWWISKWVGLNC	0.52 ± 0.034	0.705 ± 0.0095	0.778 ± 0.01	0.636 ± 0.013	0.7821 ± 0.0033	0.367 ± 0.0053	0.402 ± 0.043	0.6358 ± 0.0049
SYMWLVEVLLFI	0.264 ± 0.038	0.229 ± 0.0074	0.306 ± 0.0063	0.196 ± 0.028	0.386 ± 0.019	0.173 ± 0.012	0.189 ± 0.012	0.33 ± 0.0059
